# Assay results from US10087225B2, “Formulation of MK2 inhibitor peptides” (MOERAE MATRIX, INC., priority 2015, dated 2018).
# Tests used:
# Experiment in all cases: Kinase Profiling Assay
# Assay type in all cases: biochemical
# Details in all cases: for % activity: 100 μM
# ASK1(h) = target: T1, ASK1(h) (Homo sapiens, UniProt Q99683)
# T1 sequence (Q99683 1-1374): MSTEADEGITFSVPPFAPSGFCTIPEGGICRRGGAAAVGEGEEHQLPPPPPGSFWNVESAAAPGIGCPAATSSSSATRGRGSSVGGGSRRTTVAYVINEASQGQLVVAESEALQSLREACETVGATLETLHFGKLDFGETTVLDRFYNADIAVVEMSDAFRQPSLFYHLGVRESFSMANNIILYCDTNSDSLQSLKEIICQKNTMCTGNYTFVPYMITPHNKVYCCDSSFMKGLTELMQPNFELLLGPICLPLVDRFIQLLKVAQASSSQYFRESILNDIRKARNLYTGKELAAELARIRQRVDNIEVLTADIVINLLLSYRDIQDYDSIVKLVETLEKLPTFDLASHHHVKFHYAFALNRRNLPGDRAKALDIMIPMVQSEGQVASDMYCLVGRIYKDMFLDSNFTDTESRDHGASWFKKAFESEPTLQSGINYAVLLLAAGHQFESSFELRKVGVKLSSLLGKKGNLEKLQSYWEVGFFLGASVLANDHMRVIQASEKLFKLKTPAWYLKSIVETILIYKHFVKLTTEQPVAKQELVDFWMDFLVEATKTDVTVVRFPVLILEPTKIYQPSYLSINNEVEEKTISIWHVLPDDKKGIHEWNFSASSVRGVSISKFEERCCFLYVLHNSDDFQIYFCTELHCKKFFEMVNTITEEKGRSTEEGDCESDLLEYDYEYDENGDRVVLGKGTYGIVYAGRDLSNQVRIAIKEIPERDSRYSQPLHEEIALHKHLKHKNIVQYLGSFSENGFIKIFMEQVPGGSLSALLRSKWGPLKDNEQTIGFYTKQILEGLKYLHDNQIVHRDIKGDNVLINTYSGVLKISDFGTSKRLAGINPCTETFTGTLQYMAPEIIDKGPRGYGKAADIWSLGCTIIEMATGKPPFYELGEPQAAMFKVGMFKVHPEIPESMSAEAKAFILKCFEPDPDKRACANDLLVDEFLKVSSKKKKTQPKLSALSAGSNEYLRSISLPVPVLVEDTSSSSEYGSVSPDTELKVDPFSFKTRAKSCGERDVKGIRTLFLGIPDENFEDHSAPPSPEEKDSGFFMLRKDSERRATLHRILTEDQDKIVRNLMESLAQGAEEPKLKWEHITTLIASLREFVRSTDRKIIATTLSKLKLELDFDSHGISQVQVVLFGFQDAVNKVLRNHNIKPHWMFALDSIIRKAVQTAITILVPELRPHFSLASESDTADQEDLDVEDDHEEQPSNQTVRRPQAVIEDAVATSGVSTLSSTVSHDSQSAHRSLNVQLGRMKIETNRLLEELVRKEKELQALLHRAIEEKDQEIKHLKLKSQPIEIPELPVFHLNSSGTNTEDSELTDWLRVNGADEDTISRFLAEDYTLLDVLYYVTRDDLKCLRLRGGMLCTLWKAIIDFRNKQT
# STK33(h) = STK33(h) (Homo sapiens, UniProt Q9BYT3)
# Chain of STK33(h) (Q9BYT3 whole entry): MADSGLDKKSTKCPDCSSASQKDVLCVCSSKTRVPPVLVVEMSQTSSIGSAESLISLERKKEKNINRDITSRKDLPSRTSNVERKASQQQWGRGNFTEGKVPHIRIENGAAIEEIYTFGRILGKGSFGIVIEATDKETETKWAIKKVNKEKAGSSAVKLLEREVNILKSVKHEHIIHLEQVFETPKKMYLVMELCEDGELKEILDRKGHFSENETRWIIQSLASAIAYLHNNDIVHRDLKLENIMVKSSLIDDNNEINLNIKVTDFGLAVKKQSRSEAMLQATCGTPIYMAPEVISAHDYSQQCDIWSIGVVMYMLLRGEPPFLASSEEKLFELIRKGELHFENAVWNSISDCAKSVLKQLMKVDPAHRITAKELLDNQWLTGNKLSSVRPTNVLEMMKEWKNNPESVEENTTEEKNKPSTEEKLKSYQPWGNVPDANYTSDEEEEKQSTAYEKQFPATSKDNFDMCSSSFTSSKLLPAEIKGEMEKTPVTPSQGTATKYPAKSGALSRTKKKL
# FGFR1(h) = FGFR1(h) (Homo sapiens, UniProt P11362)
# Chain of FGFR1(h) (P11362 22-822): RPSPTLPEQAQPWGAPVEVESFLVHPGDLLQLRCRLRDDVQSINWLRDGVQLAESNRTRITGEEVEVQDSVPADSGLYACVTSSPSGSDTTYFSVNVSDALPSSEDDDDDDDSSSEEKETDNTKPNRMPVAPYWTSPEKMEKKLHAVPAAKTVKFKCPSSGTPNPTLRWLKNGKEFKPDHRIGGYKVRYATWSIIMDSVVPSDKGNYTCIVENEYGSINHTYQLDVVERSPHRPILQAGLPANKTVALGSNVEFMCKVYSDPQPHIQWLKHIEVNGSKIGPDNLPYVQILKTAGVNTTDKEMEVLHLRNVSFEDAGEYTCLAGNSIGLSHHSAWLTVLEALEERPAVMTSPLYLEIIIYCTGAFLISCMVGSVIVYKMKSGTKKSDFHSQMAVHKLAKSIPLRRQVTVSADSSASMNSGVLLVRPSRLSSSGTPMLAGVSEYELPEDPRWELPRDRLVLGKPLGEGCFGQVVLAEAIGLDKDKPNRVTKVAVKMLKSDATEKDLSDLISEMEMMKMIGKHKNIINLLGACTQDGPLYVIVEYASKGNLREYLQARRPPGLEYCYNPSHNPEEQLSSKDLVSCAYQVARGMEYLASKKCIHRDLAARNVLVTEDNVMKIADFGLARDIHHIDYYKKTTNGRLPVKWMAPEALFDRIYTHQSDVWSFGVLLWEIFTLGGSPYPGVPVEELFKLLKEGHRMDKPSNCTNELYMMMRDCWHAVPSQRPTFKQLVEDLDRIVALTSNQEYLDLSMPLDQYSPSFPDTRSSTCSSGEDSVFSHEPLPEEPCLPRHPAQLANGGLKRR
# PKCμ(h) = target: T2, PKCμ(h) (Homo sapiens, UniProt Q15139)
# T2 sequence (Q15139 1-912): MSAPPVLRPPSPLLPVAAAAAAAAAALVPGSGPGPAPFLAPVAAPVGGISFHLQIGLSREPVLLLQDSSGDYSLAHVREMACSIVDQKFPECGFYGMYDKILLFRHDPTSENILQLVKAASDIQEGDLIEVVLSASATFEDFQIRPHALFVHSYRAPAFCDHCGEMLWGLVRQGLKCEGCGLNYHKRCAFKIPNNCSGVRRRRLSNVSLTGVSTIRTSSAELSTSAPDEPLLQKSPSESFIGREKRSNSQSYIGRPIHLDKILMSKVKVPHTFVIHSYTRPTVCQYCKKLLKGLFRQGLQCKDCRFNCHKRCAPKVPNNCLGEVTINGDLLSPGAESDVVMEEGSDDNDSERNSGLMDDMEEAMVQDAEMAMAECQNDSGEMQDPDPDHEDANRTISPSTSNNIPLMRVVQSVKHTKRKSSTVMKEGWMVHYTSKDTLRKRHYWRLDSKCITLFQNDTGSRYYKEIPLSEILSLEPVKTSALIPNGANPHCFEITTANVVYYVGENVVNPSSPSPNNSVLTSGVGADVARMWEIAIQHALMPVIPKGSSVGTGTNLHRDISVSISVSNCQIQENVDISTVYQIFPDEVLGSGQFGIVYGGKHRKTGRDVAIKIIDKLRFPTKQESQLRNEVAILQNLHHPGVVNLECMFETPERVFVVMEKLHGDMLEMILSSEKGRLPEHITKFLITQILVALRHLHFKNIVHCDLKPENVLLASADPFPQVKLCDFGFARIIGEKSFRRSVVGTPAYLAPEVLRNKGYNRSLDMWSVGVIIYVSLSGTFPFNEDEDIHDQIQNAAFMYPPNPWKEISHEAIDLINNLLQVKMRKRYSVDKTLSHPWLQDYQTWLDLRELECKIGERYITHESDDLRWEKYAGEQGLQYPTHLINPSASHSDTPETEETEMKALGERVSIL
# Fms(h) = Fms(h) (Homo sapiens, UniProt P07333)
# FGFR3(h) = FGFR3(h) (Homo sapiens, UniProt P22607)
# Chain of FGFR3(h) (P22607 23-806): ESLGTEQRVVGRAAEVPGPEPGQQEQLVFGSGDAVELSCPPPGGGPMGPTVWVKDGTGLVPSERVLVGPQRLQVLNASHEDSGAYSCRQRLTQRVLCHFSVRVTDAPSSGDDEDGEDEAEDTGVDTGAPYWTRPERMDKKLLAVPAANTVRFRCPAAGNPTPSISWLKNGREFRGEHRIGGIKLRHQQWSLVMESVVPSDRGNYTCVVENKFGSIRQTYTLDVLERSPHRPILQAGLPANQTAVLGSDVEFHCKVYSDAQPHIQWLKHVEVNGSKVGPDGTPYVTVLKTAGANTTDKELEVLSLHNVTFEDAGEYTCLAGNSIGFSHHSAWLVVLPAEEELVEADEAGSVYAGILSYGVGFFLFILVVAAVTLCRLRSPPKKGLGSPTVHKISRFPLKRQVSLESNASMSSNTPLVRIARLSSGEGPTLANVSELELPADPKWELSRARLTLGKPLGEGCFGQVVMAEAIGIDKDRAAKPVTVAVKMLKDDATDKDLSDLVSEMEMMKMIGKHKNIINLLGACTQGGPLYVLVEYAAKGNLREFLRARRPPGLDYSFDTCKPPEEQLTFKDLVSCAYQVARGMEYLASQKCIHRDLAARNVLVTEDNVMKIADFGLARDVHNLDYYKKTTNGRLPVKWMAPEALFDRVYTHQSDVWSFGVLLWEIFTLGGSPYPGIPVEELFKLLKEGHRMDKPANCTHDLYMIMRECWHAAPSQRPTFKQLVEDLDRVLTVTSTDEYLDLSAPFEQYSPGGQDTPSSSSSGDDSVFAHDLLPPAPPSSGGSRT
Substance,activity at 100 µM (ASK1(h)),activity at 100 µM (STK33(h)),activity at 100 µM (FGFR1(h)),activity at 100 µM (PKCμ(h)),activity at 100 µM (Fms(h)),activity at 100 µM (FGFR3(h)),% activity (ASK1(h)),% activity (STK33(h)),% activity (FGFR1(h)),% activity (PKCμ(h)),% activity (Fms(h)),% activity (FGFR3(h))
H-YARAAARQARAKALARQLGVAA-OH [MMI-0100],100%,99%,120%,79%,89%,73%,–,–,–,–,–,–
HRRIKAWLKKIKALARQLGVAA (Mammalian) [MMI-0500],–,–,–,–,–,–,-4%,16%,18%,10%,14%,10%
YARAAARQARAKALNRQLGVA (Mammalian) [MMI-0200],–,–,–,–,–,–,101%,98%,97%,73%,92%,208%
